Experimental data from patent US20210340273A1 (INHLBRX, published 2021).

T1: human 5T4 (trophoblast glycoprotein), endogenous on the cell surface (human, UniProt Q13641 32-420)
T1 construct: also called TPBG; 5T4 oncofetal antigen
T1 sequence: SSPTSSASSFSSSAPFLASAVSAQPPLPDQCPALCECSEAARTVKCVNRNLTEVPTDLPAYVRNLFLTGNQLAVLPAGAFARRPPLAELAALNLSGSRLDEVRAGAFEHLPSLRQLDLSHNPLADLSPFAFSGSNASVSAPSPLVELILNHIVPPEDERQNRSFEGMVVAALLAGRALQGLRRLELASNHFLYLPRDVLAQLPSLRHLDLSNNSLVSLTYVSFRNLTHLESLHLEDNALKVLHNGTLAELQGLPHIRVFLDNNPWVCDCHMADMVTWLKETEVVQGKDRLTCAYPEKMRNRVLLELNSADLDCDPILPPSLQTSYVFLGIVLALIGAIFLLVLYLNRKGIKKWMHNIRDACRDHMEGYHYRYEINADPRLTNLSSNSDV


What was measured:
[1] = target: T1, human 5T4 (trophoblast glycoprotein), …; test: printed as Affinity 5T4; apparent affinity from flow cytometry titration on Ovcar-5 cells
Method: Binding of exemplary 5T4-targeting constrained CD3 engaging constructs set forth in Table E3 to CD3 on the surface of primary T cells and 5T4 expressing cells (Ovcar-5) was assessed by flow cytometry. The T cells were primary T-cells that were negatively enriched from PBMCs isolated from healthy human donor leukopaks. Bound construct was detected with fluorophore-conjugated secondary antibodies specific for the human Fc (anti-human IgG APC secondary antibody) and binding was measured by flow cytometry. Cells incubated with secondary antibody only served as negative controls. The results, from flow cytometry histograms displaying normalized cell counts versus fluorescence at 200 nM of each construct, are shown in FIG. 4A (cx3253), FIG. 4B (cx3264), FIG. 4C (cx3497), FIG. 4D (cx3499), FIG. 4E (cx3547), FIG. 4F (cx3546), FIG. 4G (cx4224), FIG. 4H (cx4913), FIG. 4I (cx3265), […] (cx4912), FIG. 4K (cx3262), FIG. 4L (cx4911), and FIG. 4M (cx4910). […] However, as shown in the top right and bottom panels of each of the figures, the same constructs were not able to bind to T cells in isolation.
Table E4 summarizes the affinity of exemplary molecules for 5T4 or CD3, as determined from flow cytometry, in these studies.

[2] = target: T1, human 5T4 (trophoblast glycoprotein), …; test: flow cytometry on 5T4-positive OVCAR5 (Ovcar-5) cells, anti-human IgG secondary; titration
Method: FIGS. 4A-4M depict the binding of various 5T4-target constrained CD3 engaging constructs to the 5T4 positive Ovcar-5 cell line (top left) and the lack of binding to primary human T-cells (top right). […] Binding was assessed by flow cytometry using an anti-human IgG APC secondary antibody. The histograms display the normalized cell counts vs fluorescence at 200 nM of each construct.
Binding of exemplary 5T4-targeting constrained CD3 engaging constructs set forth in Table E3 to CD3 on the surface of primary T cells and 5T4 expressing cells (Ovcar-5) was assessed by flow cytometry. The T cells were primary T-cells that were negatively enriched from PBMCs isolated from healthy human donor leukopaks. Bound construct was detected with fluorophore-conjugated secondary antibodies specific for the human Fc (anti-human IgG APC secondary antibody) and binding was measured by flow cytometry. Cells incubated with secondary antibody only served as negative controls. […] The results, from flow cytometry histograms displaying normalized cell counts versus fluorescence at 200 nM of each construct, are shown in FIG. 4A (cx3253), FIG. 4B (cx3264), FIG. 4C (cx3497), FIG. 4D (cx3499), FIG. 4E (cx3547), FIG. 4F (cx3546), FIG. 4G (cx4224), FIG. 4H (cx4913), FIG. 4I (cx3265), […] (cx4912), FIG. 4K (cx3262), FIG. 4L (cx4911), and FIG. 4M (cx4910). […]

Binder	Kd [1] [nM]	EC50 (read off the curve) [2] [nM]
cx3253, 5T4-targeted constrained CD3 engaging construct with a 41BB binding domain (bispecific antibody, Heterodimeric multispecific construct (5T4 x CD3 x 41BB)) chain 1: QVQLVQSGGGLVQAGGSLRLSCAASRRPFSSKTMAWFRQTPGKEREFVAAVRWIGGATRYTDSVKGRFSISKDNAINTVYLQMNSLKSEDTAVYYCAAGQAWGTKFTDYSDWGQGTQVTVKPDKTHTCPPCPAPELLGGPSVFLFPPKPKDTLMISRTPEVTCVVVDVSHEDPEVKFNWYVDGVEVHNAKTKPREEQYNSTYRVVSVLTVLHQDWLNGKEYKCKVSNKALPAPIEKTISKAKGQPREPQVYTLPPCRDELTKNQVSLWCLVKGFYPSDIAVEWESNGQPENNYKTTPPVLDSDGSFFLYSKLTVDKSRWQQGNVFSCSVMHEALHNHYTQKSLSLSPTGGSGGGGIEPDIGGSGGSEVQLVESGGGLVQPGGSLRLSCAASGFTFNTYAMNWVRQAPGKCLEWVARIRSKYNNYATYYADSVKGRFTISRDDAKNTLYLQMSSLRAEDTAVYYCVRHGNFGNSYVSWFAYWGQGTLVTVKPQVQLVQSGGGLVQAGASLRLSCVASGRTRSLRTMAWFRQAPGKERIFVAAISWRSDSTYYADSVKGRFTISRDNAKNTAYLQMNTLKPEDTAVYYCAAGGGWLATTPDEYTYWGQGTLVTVKP chain 2: not shown	0.12	
cx3497, 5T4-targeted constrained CD3 engaging construct with a 41BB binding domain (bispecific antibody, Heterodimeric multispecific construct (5T4 x CD3 x 41BB)) chain 1: QVQLVQSGGGLVQAGGSLRLSCAASRRPFSSKTMAWFRQTPGKEREFVAAVRWIGGATRYTDSVKGRFSISKDNAINTVYLQMNSLKSEDTAVYYCAAGQAWGTKFTDYSDWGQGTQVTVKPDKTHTCPPCPAPELLGGPSVFLFPPKPKDTLMISRTPEVTCVVVDVSHEDPEVKFNWYVDGVEVHNAKTKPREEQYNSTYRVVSVLTVLHQDWLNGKEYKCKVSNKALPAPIEKTISKAKGQPREPQVYTLPPCRDELTKNQVSLWCLVKGFYPSDIAVEWESNGQPENNYKTTPPVLDSDGSFFLYSKLTVDKSRWQQGNVFSCSVMHEALHNHYTQKSLSLSPTGGSGGGGIEPDIGGSGGSEVQLVESGGGLVQPGGSLRLSCAASGFTFNTYAMNWVRQAPGKCLEWVARIRSKYNNYATYYADSVKGRFTISRDDAKNTLYLQMSSLRAEDTAVYYCVRHGNFGNSYVSWFAYWGQGTLVTVKPQVQLLQSGGGLVQAGGSLILSCAVSGRPFSSSAMGWFRQAPGKERETVAAVSRNGGSSYYADFVKGRFTISRDNDKNTVYLQMNSLKPEDTAVYYCAARSAAYSRSSETYTEKHDYTYWGQGTQVTVKP chain 2: not shown	0.646	~0.7
cx3499, 5T4-targeted constrained CD3 engaging construct with a 41BB binding domain (bispecific antibody, Heterodimeric multispecific construct (5T4 x CD3 x 41BB)) chain 1: QVQLVQSGGGLVQAGGSLRLSCAASRRPFSSKTMAWFRQTPGKEREFVAAVRWIGGATRYTDSVKGRFSISKDNAINTVYLQMNSLKSEDTAVYYCAAGQAWGTKFTDYSDWGQGTQVTVKPDKTHTCPPCPAPELLGGPSVFLFPPKPKDTLMISRTPEVTCVVVDVSHEDPEVKFNWYVDGVEVHNAKTKPREEQYNSTYRVVSVLTVLHQDWLNGKEYKCKVSNKALPAPIEKTISKAKGQPREPQVYTLPPCRDELTKNQVSLWCLVKGFYPSDIAVEWESNGQPENNYKTTPPVLDSDGSFFLYSKLTVDKSRWQQGNVFSCSVMHEALHNHYTQKSLSLSPTGGSGGGGIEPDIGGSGGSEVQLVESGGGLVQPGGSLRLSCAASGFTFNTYAMNWVRQAPGKCLEWVARIRSKYNNYATYYADSVKGRFTISRDDAKNTLYLQMSSLRAEDTAVYYCVRHGNFGNSYVSWFAYWGQGTLVTVKPQVQLVQSGGGLVQAGDSLTLSCAVSERPFGTYAMGWFRQAPGRERDLVAAVSRNGGASQYGDSVKGRFSISRDNIKNTMYLQMNSLKPEDTAVYYCAARSAAYSRSSEVYTGKDEYYYWGQGTQVTVKP chain 2: not shown	0.653	~0.7
